Data: patent publication US20210261605A1
Numbering of substitutions follows the chain as printed. Each block holds one binder with its values, some of them ahead of it.

Biological target: IgG1 (product of Sigma-Aldrich)
Assay: SPR (Biacore T100), Fc-binding protein immobilized on CM5 chip, IgG1 in flow

Kd: 39 nM | koff: 0.031 s⁻¹ | kon: 810000 M⁻¹ s⁻¹
B1: FcR35d-containing Fc-binding protein (SEQ ID NO: 7) (receptor)
chain: KIEEAMGMRTGDMPKAEVILEPPWNRVLEQDSVTLKCRGAHSPDDDSTQWFHNERLIPSQASSFIIDSASVDDSGEYRCQTSLSTLSDPVQLEVHIGWLLLQAPRWEFVEGEPIHLRCHSWRNTALHKVMFLQNGKVRKYFHHNSDFVIPKATLEDSGSYSCRGLVGRKKVSSGAVDITVTQGGHHHHHH

Kd: 95 nM | koff: 0.13 s⁻¹ | kon: 1.4e+06 M⁻¹ s⁻¹
B2: FcR36a-containing Fc-binding protein (SEQ ID NO: 11) (receptor)
chain: B1 chain with V166A

Kd: 43 nM | koff: 0.038 s⁻¹ | kon: 900000 M⁻¹ s⁻¹
B3: FcR36i-containing Fc-binding protein (SEQ ID NO: 9) (receptor)
chain: B1 chain with V166I

Kd: 40 nM | koff: 0.022 s⁻¹ | kon: 540000 M⁻¹ s⁻¹
B4: FcR35c-containing Fc-binding protein (SEQ ID NO: 5) (receptor)
chain: B1 chain with R55S, D72E, D88E, Q91L, K170N, G174E, D177E, Q182P

Kd: 60 nM | koff: 0.012 s⁻¹ | kon: 200000 M⁻¹ s⁻¹
B5: FcR9_I (SEQ ID NO: 24), Fc-binding protein containing the amino acid substitution Val192Ile (receptor)
chain: KIEEAMGMRTEDLPKAEVILEPQWNRVLEKDSVTLKCRGAYSPEDNSTQWFHNESLISSQASSYLIDAATVDDSGEYRCQTSLSTLSDPVQLEVHIGWLLLQAPRWEFKEGDPIHLRCHSWKNTALHKVTYLQNGKGRKYFHHNSDFYIPKATLKDSGSYSCRGLIGSKNVSSETVNITITQGGHHHHHH

Kd: 36 nM | koff: 0.0035 s⁻¹ | kon: 100000 M⁻¹ s⁻¹
B6: FcR9_A (SEQ ID NO: 26), Fc-binding protein containing the amino acid substitution Val192Ala (receptor)
chain: B5 chain with I166A

Kd: 3300 nM | koff: 0.3 s⁻¹ | kon: 90000 M⁻¹ s⁻¹
B7: FcR9_F, Fc-binding protein having phenylalanine substituting for valine at position 192 of FcR9 (SEQ ID NO: 20) (receptor)
chain: B5 chain with I166F

Kd: 77 nM | koff: 0.031 s⁻¹ | kon: 410000 M⁻¹ s⁻¹
B8: Fc-binding protein FcR9 (SEQ ID NO: 20) (receptor)
chain: B5 chain with I166V
